Source: patent US6991909B2, “Enkurin and uses thereof” (University of Massachusetts, priority 2002, dated 2006)

Tests used:
TRPC2 channel = test: Perforated whole cell patch clamp of ATP-evoked currents in HEK-293 cells stably transfected with TRPC2; format: cell-based, mouse
Source text: The effects of enkurin on the ion channel activity of TRPC2 were examined using HEK-293 cells that were stably transfected with TRPC2. HEK cells provide a good model for the study of receptor-activated ion channels since they have very low levels of endogenous ion channel activity and thus provide a relatively uncomplicated model for the study of exogenous channels. These cells also have endogenous […] receptors that regulate phospholipase C (PLC), thereby providing a facile and reversible means for activating PLC-dependent ion channels, HEK cells have been used to study TRPC2 function (Jungnickel et al., supra 2001).
In experiments on the TRPC2 channel in HEK cells, ion channel activity was measured using the perforated, whole cell patch clamp. This configuration permits the determination of ion currents while simultaneously maintaining cytoplasmic integrity.
ATP ([…]) evoked an inward current in TRPC2-expressing HEK cells (Derassi et al, 1998, Trends Cell Biol 8:84-87) that reaches peak amplitude in 20-30 seconds. However, when TRPC2 and enkurin were co-expressed (trace 2), the evoked current was 5-6 times larger (131+/−12 pA, n=5). This current activates about 25 times faster (peak amplitude in 0.5-1 seconds) and inactivates more rapidly. Total TRPC2 current, as estimated by integrating the areas beneath these traces, is increased nine +/−two-fold by enkurin. […] Anti-RDAS blocked >95% of the ATP-evoked current in cells that had been co-transfected with TRPC2 and with enkurin (trace 2). Thus, enkurin is stimulating TRPC2 currents, not acting at some undefined endogenous channel or forming a channel itself.
In the assay, HEK cells are used that constitutively express TRPC2. Such cell lines can be produced using methods known in the art. The line should express reproducible levels of TRPC2 current. In a line that we developed, enkurin increased the peak amplitude of ATP-evoked TRPC2 currents by >5-6 fold and the activation and inactivation rates by 25 fold. In addition, this signal can be “zero-ed” using anti-RDAS, the TRPC2 blocking antibody (FIG. 7). Given this magnitude of current enhancement by enkurin in such a cell line, even subtle effects of enkurin mutants, candidate compounds, or antisense molecules are detectable.

[1] = molecular target: T1, TRPC2 stably expressed in HEK-293 cells (mouse, UniProt Q9R244 1-1172); test: cell-based or functional assay
T1 sequence (looked up): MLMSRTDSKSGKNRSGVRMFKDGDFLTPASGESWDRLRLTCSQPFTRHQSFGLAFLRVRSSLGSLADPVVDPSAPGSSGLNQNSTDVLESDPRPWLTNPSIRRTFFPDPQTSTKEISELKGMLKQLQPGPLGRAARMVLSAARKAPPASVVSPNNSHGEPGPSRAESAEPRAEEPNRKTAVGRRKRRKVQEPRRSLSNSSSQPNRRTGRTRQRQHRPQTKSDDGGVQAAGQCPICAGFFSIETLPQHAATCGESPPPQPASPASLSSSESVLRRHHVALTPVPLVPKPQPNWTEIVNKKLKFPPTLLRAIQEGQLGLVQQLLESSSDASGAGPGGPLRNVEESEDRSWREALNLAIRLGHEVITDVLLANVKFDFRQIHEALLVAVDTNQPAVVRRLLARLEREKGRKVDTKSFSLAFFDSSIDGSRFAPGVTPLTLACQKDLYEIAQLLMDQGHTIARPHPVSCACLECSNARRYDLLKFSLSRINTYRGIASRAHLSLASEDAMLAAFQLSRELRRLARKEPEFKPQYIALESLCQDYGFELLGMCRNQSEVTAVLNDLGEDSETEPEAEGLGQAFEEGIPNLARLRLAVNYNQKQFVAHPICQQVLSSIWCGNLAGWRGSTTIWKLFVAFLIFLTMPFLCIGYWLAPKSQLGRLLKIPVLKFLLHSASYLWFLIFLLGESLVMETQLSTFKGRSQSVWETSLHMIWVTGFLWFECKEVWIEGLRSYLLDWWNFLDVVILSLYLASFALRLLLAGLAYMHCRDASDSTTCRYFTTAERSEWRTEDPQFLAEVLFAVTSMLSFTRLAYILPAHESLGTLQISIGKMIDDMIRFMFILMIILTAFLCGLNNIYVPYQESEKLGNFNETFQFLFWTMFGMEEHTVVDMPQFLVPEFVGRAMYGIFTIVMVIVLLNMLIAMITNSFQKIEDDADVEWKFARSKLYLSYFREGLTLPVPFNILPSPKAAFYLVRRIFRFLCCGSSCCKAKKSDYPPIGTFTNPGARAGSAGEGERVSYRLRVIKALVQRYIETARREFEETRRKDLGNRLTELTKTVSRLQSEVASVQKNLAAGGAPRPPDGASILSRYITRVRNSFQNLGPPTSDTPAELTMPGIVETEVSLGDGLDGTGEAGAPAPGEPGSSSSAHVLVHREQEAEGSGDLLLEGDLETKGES

[2] = molecular target: T2, enkurin-HA (Mus musculus (Mouse)) (UniProt Q6SP97); test: co-immunoprecipitation with anti-HA-Sepharose from HEK/TRPC2 cell extracts, blot with anti-RDAS; peptide competes with TRPC2
T2 sequence: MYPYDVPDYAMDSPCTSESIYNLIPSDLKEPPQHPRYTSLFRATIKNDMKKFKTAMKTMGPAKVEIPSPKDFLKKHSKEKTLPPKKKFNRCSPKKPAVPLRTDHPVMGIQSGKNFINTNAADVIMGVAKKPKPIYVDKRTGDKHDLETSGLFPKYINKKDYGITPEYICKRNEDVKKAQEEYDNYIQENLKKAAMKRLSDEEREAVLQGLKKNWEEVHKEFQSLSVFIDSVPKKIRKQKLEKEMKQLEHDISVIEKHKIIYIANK

[3] = TRPC2 and enkurin co-expressed vs TRPC2 alone

B1: enkurin (other)
chain: MDSPCTSESIYNLIPSDLKEPPQHPRYTSLFRATIKNDMKKFKTAMKTMGPAKVEIPSPKDFLKKHSKEKTLPPKKKFNRCSPKKPAVPLRTDHPVMGIQSGKNFINTNAADVIMGVAKKPKPIYVDKRTGDKHDLETSGLFPKYINKKDYGITPEYICKRNEDVKKAQEEYDNYIQENLKKAAMKRLSDEEREAVLQGLKKNWEEVHKEFQSLSVFIDSVPKKIRKQKLEKEMKQLEHDISVIEKHKIIYIANK
- time to peak amplitude (TRPC2 channel; TRPC2 and enkurin co-expressed): 0.5 to 1 s
- current activates faster (TRPC2 channel; [3]): about 25 times
- increase of peak amplitude of ATP-evoked TRPC2 current (TRPC2 channel; [3]): 5-6 fold
- increase of total TRPC2 current, estimated by integrating areas beneath traces (TRPC2 channel; [3]): nine +/−two
- ATP-evoked current (TRPC2 channel; TRPC2 and enkurin co-expressed, n=5): 131+/−12 pA
- stimulation of ATP-evoked current relative to TRPC2 alone (TRPC2 channel; enkurin co-expressed with deletion mutant of TRPC2 lacking the PKD1 domain): no stimulation
- activation rate of the ATP-evoked current [1]: ~25 fold
- total TRPC2 current (integrated area beneath traces) [1]: 9 fold

Molecule: LPQHAATCGESPPPQPASPASLSSS [TRPC2336-361 peptide]
- reduction of co-immunoprecipitation of TRPC2 with enkurin-HA [2]: > 90%
